Measured values: article PMC7954794, “Protein context shapes the specificity of SH3 domain-mediated interactions in vivo” (Nature Communications, 2021)

System: PPIs identified as affected by the SH3 domain deletions
Test: Liquid DHFR-PCA low-throughput validation of PPIs affected by SH3 deletion (Fig. S1D-E)
Format: cell-based, Saccharomyces cerevisiae
Conditions: label = prey, liquid DHFR-PCA, prey _1 = lost, _2 = gained in screen
Method in brief: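 Yeast diploids from DHFR-PCA mating grown 48 h in synthetic complete MSG medium pH 6.0 with NAT and HPH, normalized to 1 OD and diluted to 0.1 OD in liquid PCA selection medium. Growth followed by OD every 15 min for 72 h at 30 °C.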

B1: YLR196W_2 (protein, UniProt P21304 1-576, looked up)
Periodic tryptophan protein 1: MISATNWVPRGFSSEFPEKYVLDDEEVERINQLAQLNLDDAKATLEEAEGESGVEDDAATGSSNKLKDQLDIDDDLKEYNLEEYDDEEIADNEGGKDVSMFPGLSNDSDVKFHEGEKGEDPYISLPNQEDSQEEKQELQVYPSDNLVLAARTEDDVSYLDIYVYDDGAGFHSSDIPVEEGDEADPDVARGLVRDPALYVHHDLMLPAFPLCVEWLDYKVGSNSEEAANYAAIGTFDPQIEIWNLDCVDKAFPDMILGEPLDNSMVSLKSKKKKKKSKTGHITTHHTDAVLSMAHNKYFRSVLASTSADHTVKLWDLNSGNAARSLASIHSNKNVSSSEWHMLNGSILLTGGYDSRVALTDVRISDESQMSKYWSAMAGEEIETVTFASENIILCGTDSGNVYSFDIRNNENRKPVWTLKAHDAGISTLCSNKFIPGMMSTGAMGEKTVKLWKFPLDDATNTKGPSMVLSRDFDVGNVLTSSFAPDIEVAGTMVIGGVNKVLKLWDVFTNRSVRKSFKSELENVQARAKEEAQKIGKSSRIARKYTSNDNPDTVITIDDQGEDEEEREGGDEHDDMA
Bait LSB3
  Ratio (Deletedscore / WTscore): 1.184

B2: YNL229C_2 (protein, UniProt P23202 2-354, looked up)
Transcriptional regulator URE2: MNNNGNQVSNLSNALRQVNIGNRNSNTTTDQSNINFEFSTGVNNNNNNNSSSNNNNVQNNNSGRNGSQNNDNENNIKNTLEQHRQQQQAFSDMSHVEYSRITKFFQEQPLEGYTLFSHRSAPNGFKVAIVLSELGFHYNTIFLDFNLGEHRAPEFVSVNPNARVPALIDHGMDNLSIWESGAILLHLVNKYYKETGNPLLWSDDLADQSQINAWLFFQTSGHAPMIGQALHFRYFHSQKIASAVERYTDEVRRVYGVVEMALAERREALVMELDTENAAAYSAGTTPMSQSRFFDYPVWLVGDKLTIADLAFVPWNNVVDRIGINIKIEFPEVYKWTKHMMRRPAVIKALRGE
Bait HSE1
  Ratio (Deletedscore / WTscore): 0.8445

B3: YBL071W-A_2 (protein, UniProt Q3E840 1-82, looked up)
Diphthamide biosynthesis …: MSTYDEIEIEDMTFEPENQMFTYPCPCGDRFQIYLDDMFEGEKVAVCPSCSLMIDVVFDKEDLAEYYEEAGIHPPEPIAAAA
Bait ABP1
  Ratio (Deletedscore / WTscore): 1.188

B4: YFR040W_2 (protein, UniProt P43612 1-1002, looked up)
SIT4-associating protein …: MSFWPFGQNLNHSNINKILDEYFHVLHELERINPSVGKAIPAIFNNVQERGTSDSLDSIPEEYSHGDEVKTARGDQKSRFEKDDQQERYEKEEEERSMNSSESSTTSFSSGSTSKTDLDEEDISNATAPMMVTTKNLDNSFIERMLVETELLNELSRQNKTLLDFICFGFFFDKKTNKKVNNMEYLVDQLMECISKIKTATTVDLNNLIDYQEQQQLDDSSQEDVYVESDTEQEEEKEDDNNSNNKKRRKRGSSSFGNDDINNNDDDDDANEDDESAYLTKATIISEIFSLDIWLISESLVKNQSYLNKIWSIINQPNFNSENSPLVPIFLKINQNLLLTRQDQYLNFIRTERSFVDDMLKHVDISLLMDFFLKIISTDKIESPTGIIELVYDQNLISKCLSFLNNKESPADIQACVGDFLKALIAISANAPLDDISIGPNSLTRQLASPESIAKLVDIMINQRGAALNTTVSIVIELIRKNNSDYDQVNLLTTTIKTHPPSNRDPIYLGYLLRKFSNHLSDFFQIILDIENDANIPLHENQLHEKFKPLGFERFKVVELIAELLHCSNMGLMNSKRAERIARRRDKVRSQLSHHLQDALNDLSIEEKEQLKTKHSPTRDTDHDLKNNNGKIDNDNNDNDDESDYGDEIDESFEIPYINMKQNIKLRTDPTVGDLFKIKLYDTRIVSKIMELFLTHPWNNFWHNVIFDIIQQIFNGRMDFSYNSFLVLSLFNLKSSYQFMTDIVISDEKGTDVSRFSPVIRDPNFDFKITTDFILRGYQDSYKFYELRKMNLGYMGHIVLIAEEVVKFSKLYKVELISPDIQVILQTEEWQYYSEEVLNETRMMYSKILGGGSYIDDGNGNIIPQLPDNTTVLTPNGDASNNNEILDSDTGSSNGTSGGGQLINVESLEEQLSLSTESDLHNKLREMLINRAQEDVDNKNTENGVFILGPPEDKNSNSNINNTNHNSNNSNNNDNNDNNDNDNDNTRNYNEDADNDNDYDHE
Bait LSB3
  Ratio (Deletedscore / WTscore): 1.731

B5: YLR330W_2 (protein, UniProt Q12114 1-671, looked up)
Chitin biosynthesis protein …: MSSVDVLLTVGKLDASLALLTTQDHHVIEFPTVLLPENVKAGSIIKMQVSQNLEEEKKQRNHFKSIQAKILEKYGTHKPESPVLKIVNVTQTSCVLAWDPLKLGSAKLKSLILYRKGIRSMVIPNPFKVTTTKISGLSVDTPYEFQLKLITTSGTLWSEKVILRTHKMTDMSGITVCLGPLDPLKEISDLQISQCLSHIGARPLQRHVAIDTTHFVCNDLDNEESNEELIRAKHNNIPIVRPEWVRACEVEKRIVGVRGFYLDADQSILKNYTFPPVNEEELSYSKENEPVAEVADENKMPEDTTDVEQVASPNDNESNPSEAKEQGEKSGHETAPVSPVEDPLHASTALENETTIETVNPSVRSLKSEPVGTPNIEENKADSSAEAVVEEPNEAVAESSPNEEATGQKSEDTDTHSNEQADNGFVQTEEVAENNITTESAGENNEPADDAAMEFGRPEAEIETPEVNESIEDANEPAEDSNEPVEDSNKPVKDSNKPVEDSNKPVEDSNKPVEDSNKPVEDANEPVEDTSEPVEDAGEPVQETNEFTTDIASPRHQEEDIELEAEPKDATESVAVEPSNEDVKPEEKGSEAEDDINNVSKEAASGESTTHQKTEASASLESSAVTEEQETTEAEVNTDDVLSTKEAKKNTGNSNSNKKKNKKNKKKGKKK
Bait LSB3
  Ratio (Deletedscore / WTscore): 1.34

B6: YBR177C_2 (protein, UniProt P38295 1-451, looked up)
Medium-chain fatty acid ethyl …: MSEVSKWPAINPFHWGYNGTVSHIVGENGSIKLHLKDNKEQVDFDEFANKYVPTLKNGAQFKLSPYLFTGILQTLYLGAADFSKKFPVFYGREIVKFSDGGVCTADWLIDSWKKDYEFDQSTTSFDKKKFDKDEKATHPEGWPRLQPRTRYLKDNELEELREVDLPLVVILHGLAGGSHEPIIRSLAENLSRSGRFQVVVLNTRGCARSKITTRNLFTAYHTMDIREFLQREKQRHPDRKLYAVGCSFGATMLANYLGEEGDKSPLSAAATLCNPWDLLLSAIRMSQDWWSRTLFSKNIAQFLTRTVQVNMGELGVPNGSLPDHPPTVKNPSFYMFTPENLIKAKSFKSTREFDEVYTAPALGFPNAMEYYKAASSINRVDTIRVPTLVINSRDDPVVGPDQPYSIVEKNPRILYCRTDLGGHLAYLDKDNNSWATKAIAEFFTKFDELVV
Bait LSB3
  Ratio (Deletedscore / WTscore): 1.519

B7: YHR064C_2 (protein, UniProt P38788 1-538, looked up)
Ribosome-associated complex …: MSSPVIGITFGNTSSSIAYINPKNDVDVIANPDGERAIPSALSYVGEDEYHGGQALQQLIRNPKNTIINFRDFIGLPFDKCDVSKCANGAPAVEVDGKVGFVISRGEGKEEKLTVDEVVSRHLNRLKLAAEDYIGSAVKEAVLTVPTNFSEEQKTALKASAAKIGLQIVQFINEPSAALLAHAEQFPFEKDVNVVVADFGGIRSDAAVIAVRNGIFTILATAHDLSLGGDNLDTELVEYFASEFQKKYQANPRKNARSLAKLKANSSITKKTLSNATSATISIDSLADGFDYHASINRMRYELVANKVFAQFSSFVDSVIAKAELDPLDIDAVLLTGGVSFTPKLTTNLEYTLPESVEILGPQNKNASNNPNELAASGAALQARLISDYDADELAEALQPVIVNTPHLKKPIGLIGAKGEFHPVLLAETSFPVQKKLTLKQAKGDFLIGVYEGDHHIEEKTLEPIPKEENAEEDDESEWSDDEPEVVREKLYTLGTKLMELGIKNANGVEIIFNINKDGALRVTARDLKTGNAVKGEL
Bait BZZ1-2
  Ratio (Deletedscore / WTscore): 1.071

B8: YDL225W_2 (protein, UniProt Q07657 2-551, looked up)
Seventh homolog of septin 1: STASTPPINLFRRKKEHKRGITYTMLLCGPAGTGKTAFANNLLETKIFPHKYQYGKSNASISSNPEVKVIAPTKVVSFNSKNGIPSYVSEFDPMRANLEPGITITSTSLELGGNKDQGKPEMNEDDTVFFNLIMTHGIGENLDDSLCSEEVMSYLEQQFDIVLAEETRIKRNPRFEDTRVHVALYFIEPTGHGLREVDVELMKSISKYTNVLPIITRADSFTKEELTQFRKNIMFDVERYNVPIYKFEVDPEDDDLESMEENQALASLQPFAIITSDTRDSEGRYVREYPWGIISIDDDKISDLKVLKNVLFGSHLQEFKDTTQNLLYENYRSEKLSSVANAEEIGPNSTKRQSNAPSLSNFASLISTGQFNSSQTLANNLRADTPRNQVSGNFKENEYEDNGEHDSAENEQEMSPVRQLGREIKQENENLIRSIKTESSPKFLNSPDLPERTKLRNISETVPYVLRHERILARQQKLEELEAQSAKELQKRIQELERKAHELKLREKLINQNKLNGSSSSINSLQQSTRSQIKKNDTYTDLASIASGRD
Bait BZZ1-2
  Ratio (Deletedscore / WTscore): 1.566
Bait HOF1
  Ratio (Deletedscore / WTscore): 1.663

B9: YIL033C_2 (protein, UniProt P07278 2-416, looked up)
cAMP-dependent protein kinase …: VSSLPKESQAELQLFQNEINAANPSDFLQFSANYFNKRLEQQRAFLKAREPEFKAKNIVLFPEPEESFSRPQSAQSQSRSRSSVMFKSPFVNEDPHSNVFKSGFNLDPHEQDTHQQAQEEQQHTREKTSTPPLPMHFNAQRRTSVSGETLQPNNFDDWTPDHYKEKSEQQLQRLEKSIRNNFLFNKLDSDSKRLVINCLEEKSVPKGATIIKQGDQGDYFYVVEKGTVDFYVNDNKVNSSGPGSSFGELALMYNSPRAATVVATSDCLLWALDRLTFRKILLGSSFKKRLMYDDLLKSMPVLKSLTTYDRAKLADALDTKIYQPGETIIREGDQGENFYLIEYGAVDVSKKGQGVINKLKDHDYFGEVALLNDLPRQATVTATKRTKVATLGKSGFQRLLGPAVDVLKLNDPTRH
Bait CYK3
  Ratio (Deletedscore / WTscore): 1.015

B10: YML035C_2 (protein, UniProt P15274 1-810, looked up)
AMP deaminase: MDNQATQRLNDLSLEPAPSHDEQDGSGLVIDIDQRKIGDEQAGVVVDDETPPLEQQDSHESLAADSRNANFSYHENQQLLENGTKQLALDEHDSHSAILEQPSHSTNCSSSNIAAMNKGHDSADHASQNSGGKPRTLSASAQHILPETLKSFAGAPVVNKQVRTSASYKMGMLADDASQQFLDDPSSELIDLYSKVAECRNLRAKYQTISVQNDDQNPKNKPGWVVYPPPPKPSYNSDTKTVVPVTNKPDAEVFDFTKCEIPGEDPDWEFTLNDDDSYVVHRSGKTDELIAQIPTLRDYYLDLEKMISISSDGPAKSFAYRRLQYLEARWNLYYLLNEYQETSVSKRNPHRDFYNVRKVDTHVHHSACMNQKHLLRFIKHKLRHSKDEKVIFRDGKLLTLDEVFRSLHLTGYDLSIDTLDMHAHKDTFHRFDKFNLKYNPIGESRLREIFLKTNNYIKGTYLADITKQVIFDLENSKYQNCEYRISVYGRSLDEWDKLASWVIDNKVISHNVRWLVQIPRLYDIYKKTGIVQSFQDICKNLFQPLFEVTKNPQSHPKLHVFLQRVIGFDSVDDESKVDRRFHRKYPKPSLWEAPQNPPYSYYLYYLYSNVASLNQWRAKRGFNTLVLRPHCGEAGDPEHLVSAYLLAHGISHGILLRKVPFVQYLYYLDQVGIAMSPLSNNALFLTYDKNPFPRYFKRGLNVSLSTDDPLQFSYTREPLIEEYSVAAQIYKLSNVDMCELARNSVLQSGWEAQIKKHWIGKDFDKSGVEGNDVVRTNVPDIRINYRYDTLSTELELVNHFANFKRTIEEK
Bait HSE1
  Ratio (Deletedscore / WTscore): 1.186
Bait LSB3
  Ratio (Deletedscore / WTscore): 1.062
